Tested on: Escherichia coli TOP10
Assay: shrunken log2 fold change of peptide-encoding DNA abundance (4.5 h post-induction vs induction); higher = less antimicrobial activity (less host growth inhibition)
Conditions: time post-induction: 4.5 h; library: site-saturation at positions 5, 18, 19, 20
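Also: peptides expressed intracellularly from a pBAD plasmid library in pooled LB shake-flask culture, induced with 0.3% L-arabinose, DNA abundance read by NGS, three biological replicates, DESeq2 with apeglm shrinkage.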

Sequence	shrunken log2 fold change
RRIRTRPPRLPRPRPRPEDKPRP	-0.0305
RRIRDRPPRLPRPRPRPWHNPRP	-0.144
RRIRHRPPRLPRPRPRPPKDPRP	0.105
RRIRWRPPRLPRPRPRPPNNPRP	-0.0673
RRIRNRPPRLPRPRPRPVYGPRP	-0.0867
RRIRTRPPRLPRPRPRPKGIPRP	0.0275
RRIRQRPPRLPRPRPRPHPIPRP	-0.133
RRIRARPPRLPRPRPRPSNTPRP	-0.31
RRIRYRPPRLPRPRPRPKLSPRP	-0.204
RRIRWRPPRLPRPRPRPPVQPRP	0.952
RRIRFRPPRLPRPRPRPYGRPRP	-0.0926
RRIRGRPPRLPRPRPRPIKCPRP	-0.0104
RRIRERPPRLPRPRPRPFQTPRP	0.11
RRIRIRPPRLPRPRPRPGMPPRP	-0.0857
RRIRIRPPRLPRPRPRPNAPPRP	0.00635
RRIRRRPPRLPRPRPRPSCAPRP	0.452
RRIRARPPRLPRPRPRPCWGPRP	0.205
RRIRNRPPRLPRPRPRPINRPRP	-0.0423
RRIRKRPPRLPRPRPRPHKLPRP	0.00078
RRIRQRPPRLPRPRPRPIETPRP	0.00824
RRIRRRPPRLPRPRPRPMCRPRP	0.37
RRIRDRPPRLPRPRPRPERPPRP	0.0268
RRIRMRPPRLPRPRPRPEIMPRP	2.57
RRIRWRPPRLPRPRPRPHLQPRP	0.103
RRIRSRPPRLPRPRPRPRARPRP	0.408

Sequence	shrunken log2 fold change
RRIRWRPPRLPRPRPRPHRFPRP	0.077
RRIRKRPPRLPRPRPRPAHWPRP	0.719
RRIRDRPPRLPRPRPRPPTGPRP	0.522
RRIRVRPPRLPRPRPRPANIPRP	-0.156
RRIRWRPPRLPRPRPRPADQPRP	0.0591
RRIRCRPPRLPRPRPRPNMQPRP	-0.423
RRIRRRPPRLPRPRPRPAHYPRP	0.445
RRIRTRPPRLPRPRPRPHYHPRP	-0.853
RRIRPRPPRLPRPRPRPPFAPRP	0.647
RRIRRRPPRLPRPRPRPKLNPRP	0.101
RRIRKRPPRLPRPRPRPKECPRP	0.121
RRIRIRPPRLPRPRPRPAGVPRP	0.293
RRIRERPPRLPRPRPRPNPRPRP	0.134
RRIRWRPPRLPRPRPRPMWDPRP	0.157
RRIRERPPRLPRPRPRPAPIPRP	0.0258
RRIRQRPPRLPRPRPRPLECPRP	-0.184
RRIRNRPPRLPRPRPRPLTKPRP	0.164
RRIRWRPPRLPRPRPRPMSIPRP	-0.191
RRIRWRPPRLPRPRPRPQLEPRP	0.0296
RRIRWRPPRLPRPRPRPIHEPRP	0.041
RRIRERPPRLPRPRPRPPCMPRP	-0.272
RRIRPRPPRLPRPRPRPIHYPRP	-0.967
RRIRTRPPRLPRPRPRPDRMPRP	-0.0127
RRIRNRPPRLPRPRPRPTRWPRP	0.292
RRIRNRPPRLPRPRPRPCYWPRP	-0.345

Sequence	shrunken log2 fold change
RRIRTRPPRLPRPRPRPTNCPRP	0.216
RRIRGRPPRLPRPRPRPQGGPRP	0.127
RRIRFRPPRLPRPRPRPSRSPRP	-0.104
RRIRGRPPRLPRPRPRPSCWPRP	0.413
RRIRVRPPRLPRPRPRPMVWPRP	0.117
RRIRERPPRLPRPRPRPVWNPRP	-0.165
RRIRKRPPRLPRPRPRPRVQPRP	0.386
RRIRYRPPRLPRPRPRPKLEPRP	0.00557
RRIRTRPPRLPRPRPRPNDKPRP	-0.605
RRIRTRPPRLPRPRPRPQNTPRP	-0.622
RRIRVRPPRLPRPRPRPCMEPRP	-1
RRIRTRPPRLPRPRPRPQTYPRP	-0.0726
RRIRTRPPRLPRPRPRPWNWPRP	0.0309
RRIRDRPPRLPRPRPRPKDKPRP	0.0636
RRIRDRPPRLPRPRPRPFRDPRP	-0.00232
RRIRERPPRLPRPRPRPVGSPRP	-0.174
RRIRFRPPRLPRPRPRPTIMPRP	-0.375
RRIRWRPPRLPRPRPRPGHHPRP	0.0195
RRIRYRPPRLPRPRPRPMSDPRP	0.0277
RRIRSRPPRLPRPRPRPDTVPRP	-0.323
RRIRCRPPRLPRPRPRPHDKPRP	-0.363
RRIRRRPPRLPRPRPRPWWNPRP	-0.188
RRIRDRPPRLPRPRPRPVVLPRP	0.268
RRIRSRPPRLPRPRPRPYWYPRP	-1.45
RRIRTRPPRLPRPRPRPDEMPRP	-0.023

Sequence	shrunken log2 fold change
RRIRRRPPRLPRPRPRPMQHPRP	0.566
RRIRARPPRLPRPRPRPYEKPRP	-0.201
RRIRARPPRLPRPRPRPGICPRP	0.182
RRIRIRPPRLPRPRPRPQYWPRP	-0.361
RRIRRRPPRLPRPRPRPQACPRP	0.0222
RRIRCRPPRLPRPRPRPPIRPRP	0.0846
RRIRNRPPRLPRPRPRPCSFPRP	-0.217
RRIRPRPPRLPRPRPRPISHPRP	-0.118
RRIRGRPPRLPRPRPRPTRQPRP	0.577
RRIRKRPPRLPRPRPRPCQQPRP	-0.0287
RRIRIRPPRLPRPRPRPLAHPRP	-0.379
RRIRVRPPRLPRPRPRPNQEPRP	-0.176
RRIRMRPPRLPRPRPRPTWLPRP	0.266
RRIRRRPPRLPRPRPRPPFQPRP	0.746
RRIRARPPRLPRPRPRPGDTPRP	0.264
RRIRCRPPRLPRPRPRPWIRPRP	-0.374
RRIRDRPPRLPRPRPRPTVTPRP	0.853
RRIRHRPPRLPRPRPRPNVSPRP	-0.0959
RRIRDRPPRLPRPRPRPECIPRP	0.0163
RRIRSRPPRLPRPRPRPAMEPRP	-0.0044
RRIRERPPRLPRPRPRPRRQPRP	0.00864
RRIRKRPPRLPRPRPRPDQQPRP	0.0777
RRIRRRPPRLPRPRPRPHDNPRP	-0.13
RRIRWRPPRLPRPRPRPVHCPRP	-0.162
RRIRIRPPRLPRPRPRPMFNPRP	-0.923

Sequence	shrunken log2 fold change
RRIRRRPPRLPRPRPRPMSWPRP	0.0104
RRIRARPPRLPRPRPRPCRGPRP	-0.1
RRIRRRPPRLPRPRPRPDSVPRP	7.52e-05
RRIRNRPPRLPRPRPRPYKKPRP	-0.00559
RRIRARPPRLPRPRPRPSRTPRP	0.471
RRIRRRPPRLPRPRPRPFNCPRP	-0.301
RRIRFRPPRLPRPRPRPYSLPRP	-0.00881
RRIRPRPPRLPRPRPRPPEWPRP	0.443
RRIRNRPPRLPRPRPRPFCLPRP	-0.363
RRIRKRPPRLPRPRPRPNVIPRP	0.0501
RRIRLRPPRLPRPRPRPGNVPRP	0.0636
RRIRTRPPRLPRPRPRPMDLPRP	-0.0399
RRIRDRPPRLPRPRPRPNWSPRP	-0.0955
RRIRTRPPRLPRPRPRPEHAPRP	-0.108
RRIRFRPPRLPRPRPRPCKYPRP	-0.373
RRIRGRPPRLPRPRPRPKMGPRP	1.21
RRIRSRPPRLPRPRPRPEQMPRP	-0.0112
RRIRCRPPRLPRPRPRPPYVPRP	-0.455
RRIRDRPPRLPRPRPRPFWMPRP	0.0871
RRIRPRPPRLPRPRPRPSTNPRP	-0.301
RRIRYRPPRLPRPRPRPTGEPRP	-0.0166
RRIRLRPPRLPRPRPRPRGYPRP	0.262
RRIRSRPPRLPRPRPRPEQYPRP	-0.256
RRIRQRPPRLPRPRPRPITAPRP	-0.503
RRIRGRPPRLPRPRPRPWWWPRP	0.152

Sequence	shrunken log2 fold change
RRIRMRPPRLPRPRPRPLLEPRP	2.21
RRIRDRPPRLPRPRPRPDVCPRP	0.833
RRIRMRPPRLPRPRPRPQFYPRP	-0.263
RRIRIRPPRLPRPRPRPELLPRP	-0.0102
RRIRERPPRLPRPRPRPHEYPRP	-0.0163
RRIRYRPPRLPRPRPRPPTGPRP	0.0896
RRIRGRPPRLPRPRPRPYVSPRP	-0.203
RRIRFRPPRLPRPRPRPGLHPRP	0.159
RRIRWRPPRLPRPRPRPHLTPRP	-0.19
RRIRQRPPRLPRPRPRPEQKPRP	0.039
RRIRDRPPRLPRPRPRPNDNPRP	-0.563
RRIRERPPRLPRPRPRPTPYPRP	-0.389
RRIRCRPPRLPRPRPRPYLNPRP	-1.32
RRIRGRPPRLPRPRPRPSPWPRP	0.392
RRIRVRPPRLPRPRPRPKKHPRP	-0.0486
RRIRCRPPRLPRPRPRPWAKPRP	-0.234
RRIRCRPPRLPRPRPRPGHCPRP	-0.0435
RRIRERPPRLPRPRPRPELWPRP	0.273
RRIRHRPPRLPRPRPRPPLAPRP	0.378
RRIRTRPPRLPRPRPRPGKSPRP	-0.402
RRIRTRPPRLPRPRPRPVTPPRP	0.184
RRIRLRPPRLPRPRPRPKWMPRP	-0.00339
RRIRSRPPRLPRPRPRPCCRPRP	-0.0822
RRIRIRPPRLPRPRPRPVVPPRP	-0.215
RRIRGRPPRLPRPRPRPYVFPRP	-0.141
